Data: patent publication US20180142032A1 (Sanofi, published 2018)

Columns and labels:
[1] = target: T1, human LAMP1 at the cell surface (human, UniProt P11279 29-417); assay: flow cytometry, HCT116 stable clones; human LAMP1 on recombinant HCT116 stable clones
T1 construct: native on tumour cells (PDX, Colo205, SW480, LS174T) or from the cloned CDS NM_005561.3 in HEK293 and HCT116; signal peptide 1-28 left out; also called huLAMP1; full length human LAMP1
T1 sequence: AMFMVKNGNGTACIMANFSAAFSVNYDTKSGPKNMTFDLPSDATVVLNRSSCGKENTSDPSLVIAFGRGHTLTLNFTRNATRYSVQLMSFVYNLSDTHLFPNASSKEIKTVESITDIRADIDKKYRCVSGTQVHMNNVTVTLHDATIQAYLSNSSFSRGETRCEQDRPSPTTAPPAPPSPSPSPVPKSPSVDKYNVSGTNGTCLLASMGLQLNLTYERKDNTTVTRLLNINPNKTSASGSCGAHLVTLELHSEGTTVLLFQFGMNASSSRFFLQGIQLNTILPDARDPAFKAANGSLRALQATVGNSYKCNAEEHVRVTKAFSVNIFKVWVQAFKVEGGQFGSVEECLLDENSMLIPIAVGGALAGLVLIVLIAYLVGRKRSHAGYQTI
Description: HCT116 cells were infected by a lentiviral vector allowing stable integration of the human or the cynomolgus LAMP1 CDS in genomic DNA of cells. Individual clones with different densities of human or cynomolgus LAMP1 cell surface localization were derived from a pool of HCT116 infected cells. […] 100 μL/well of goat anti-human IgG conjugated with Alexa488 (Invitrogen; # A11013) was added for 1 h at 4° C. and washed two times with PBS 1% BSA. The antibody binding was evaluated after centrifugation and resuspension of cells in 100 μl fixing solution (paraformaldehyde at 4% in PBS). Samples were read using Galaxy® Flow Cytometry System (Partec). EC50 values were estimated using BIOST@T-SPEED software.

mLAMP1_ΔGYQTI = target: T2, mLAMP1_ΔGYQTI (mouse, UniProt P11438 25-369); assay: flow cytometry, transfected 293-F cells, experiment 2
T2 construct: on cells; also called pXL6009; murine LAMP1; not shown: murine transmembrane domain and cytoplasmic tail with GYQTI replaced by 5 Ala
T2 sequence: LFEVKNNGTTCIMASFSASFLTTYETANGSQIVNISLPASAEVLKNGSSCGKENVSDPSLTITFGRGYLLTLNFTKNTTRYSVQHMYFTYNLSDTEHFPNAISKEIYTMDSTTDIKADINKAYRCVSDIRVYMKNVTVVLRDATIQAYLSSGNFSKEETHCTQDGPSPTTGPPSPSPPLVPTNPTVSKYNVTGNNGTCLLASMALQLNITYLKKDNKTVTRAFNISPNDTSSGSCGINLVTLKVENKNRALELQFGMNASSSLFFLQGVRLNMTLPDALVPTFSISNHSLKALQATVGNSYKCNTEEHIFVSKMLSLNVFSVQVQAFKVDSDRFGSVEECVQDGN

[2] = target: T1, human LAMP1 at the cell surface; assay: flow cytometry, dissociated CR-IGR-034P colon PDX cells; CR-IGR-034P colon tumor cells
Description: Advanced human primary colon tumor CR-IGR-034P was obtained from Patient-derived xenograft in mice. Tumor CR-IGR-034P was enzymatically dissociated using collagenase Type IV (Invitrogen; #17104-019) and deoxyribonuclease I (Invitrogen; #18047-019) for 1 h at 4° C. Cell viability was estimated by Viacount application using Guava® easyCyte™ 8HT Flow Cytometry System. […] 100 μL/well of goat anti-mouse IgG conjugated with Alexa647 (Invitrogen; # A2135) or goat anti-human IgG conjugated with Alexa488 (Invitrogen; # A11013) was added for 45 min at 4° C. and washed three times with PBS 1% BSA. The antibody binding was evaluated after centrifugation and resuspension of cells by adding 200 μl/well PBS 1% BSA and read using Guava® easyCyte™ 8HT Flow Cytometry System. EC50 values were estimated using BIOST@T-SPEED software.

[3] = target: T3, cynomolgus monkey LAMP1 at the cell surface (cynomolgus monkey, UniProt P11279 29-417 (human entry)); assay: flow cytometry, HEK293 cynoLAMP1 clone 44
T3 construct: also called cynoLAMP1; cynomolgus LAMP1
T3 chain: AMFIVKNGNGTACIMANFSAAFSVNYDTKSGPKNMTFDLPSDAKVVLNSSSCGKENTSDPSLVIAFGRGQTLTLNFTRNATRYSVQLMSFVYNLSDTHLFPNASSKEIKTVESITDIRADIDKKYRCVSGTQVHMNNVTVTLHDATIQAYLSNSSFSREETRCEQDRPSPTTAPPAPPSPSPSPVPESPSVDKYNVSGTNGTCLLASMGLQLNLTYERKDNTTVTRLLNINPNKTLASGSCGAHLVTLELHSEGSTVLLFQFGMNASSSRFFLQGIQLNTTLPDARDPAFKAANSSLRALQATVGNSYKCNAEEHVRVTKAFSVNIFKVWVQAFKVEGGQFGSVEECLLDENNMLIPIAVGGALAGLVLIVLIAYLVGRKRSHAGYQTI

[4] = target: T1, human LAMP1 at the cell surface; assay: cell-based or functional assay
[5] = target: T3, cynomolgus monkey LAMP1 at the cell …; assay: flow cytometry, HCT116 stable clones
Description: (§1) 100 μL/well of goat anti-mouse IgG conjugated with Alexa647 (Invitrogen; # A2135) was added for 45 min at 4° C. and washed three times with PBS 1% BSA. The antibody binding was evaluated after centrifugation and re-suspension of cells by adding 200 μl/well PBS 1% BSA and read using Guava® easyCyte™ 8HT Flow Cytometry System. EC50 values were estimated using BIOST@T-SPEED software.

[6] = target: T1, human LAMP1 at the cell surface; assay: flow cytometry, HCT116 stable clones
Description: as §1

B1: MAb1 (antibody, mouse IgG2a, kappa)
heavy: QVQLQQSGAELVKPGASVKMSCKASGYIFTNYNIHWVKKSPGQGLEWIGAIYPGNGDAPYSQKFKDKATLTADKSSSTTYMQLSRLTSEDSAVYYCVRANWDVAFAYWGQGTLVSVSAAKTTAPSVYPLAPVCGDTTGSSVTLGCLVKGYFPEPVTLTWNSGSLSSGVHTFPAVLQSDLYTLSSSVTVTSSTWPSQSITCNVAHPASSTKVDKKIEPRGPTIKPCPPCKCPAPNLLGGPSVFIFPPKIKDVLMISLSPIVTCVVVDVSEDDPDVQISWFVNNVEVHTAQTQTHREDYNSTLRVVSALPIQHQDWMSGKEFKCKVNNKDLPAPIERTISKPKGSVRAPQVYVLPPPEEEMTKKQVTLTCMVTDFMPEDIYVEWTNNGKTELNYKNTEPVLDSDGSYFMYSKLRVEKKNWVERNSYSCSVVHEGLHNHHTTKSFSRTPGK
light: DIQMTQSPPSLSASLGGKVTITCKASQDIDRYMAWYQDKPGKGPRLLIHDTSTLQPGIPSRFSGSGSGRDYSFSISNLEPEDIATYYCLQYDNLWTFGGGTKLEIKRADAAPTVSIFPPSSEQLTSGGASVVCFLNNFYPKDINVKWKIDGSERQNGVLNSWTDQDSKDSTYSMSSTLTLTKDEYERHNSYTCEATHKTSTSPIVKSFNRNEC
notes: murine monoclonal IgG, kappa, from hybridoma; also called murine MAb1
Question: Which EC50 [1] does the source give for B1 here?
Answer: 4.9 nM

Question: And the mean fluorescence (mLAMP1_ΔGYQTI)?
Answer: 2

Question: What about the EC50 [2] of the same binder?
Answer: 5 nM

B2: huMAb1_1 (antibody, human IgG1, kappa)
heavy: not shown
light: DIQMTQSPSSLSASVGDRVTITCKASQDIDRYMAWYQDKPGKAPRLLIHDTSTLQSGVPSRFSGSGSGRDYTLTISNLEPEDFATYYCLQYDNLWTFGGGTKVEIKRTVAAPSVFIFPPSDEQLKSGTASVVCLLNNFYPREAKVQWKVDNALQSGNSQESVTEQDSKDSTYSLSSTLTLSKADYEKHKVYACEVTHQGLSSPVTKSFNRGEC
notes: humanized, VH1-huIgG1 and VL1-huCk
Question: With B2 as the binder, how does the EC50 [3] read?
Answer: 30.1 nM

Question: And the “ADCP Mean EC50, HCT116 huLAMP1 clone 4, antigen density 20 000” value [4]?
Answer: 0.73 nM

Question: What about the “ADCP Mean EC50, HCT116 huLAMP1 clone 5, antigen density 300 000” value [4] of the same binder?
Answer: 0.33 nM

Question: What about the “ADCP Mean EC50, HCT116 huLAMP1 clone 8, antigen density 100 000” value [4] of the same binder?
Answer: 0.43 nM

Question: What about the “ADCP Mean EC50, HCT116 huLAMP1 clone 12, antigen density 2500” value [4] of the same binder?
Answer: 0.65 nM

B3: MAb2 (antibody, mouse IgG1, kappa)
heavy: QVQLQQSAAELARPGASVKMSCKASGYTFTSYTMHWVKQRPGQGLEWIGYFNPSSGYPEYNQKFKDKTTLTADKSSNTAFIQLNSLTSEDSAVYYCSRGYYYGSRGYALDFWGQGASVTVSSAKTTPPSVYPLAPGSAAQTNSMVTLGCLVKGYFPEPVTVTWNSGSLSSGVHTFPAVLQSDLYTLSSSVTVPSSTWPSETVTCNVAHPASSTKVDKKIVPRDCGCKPCICTVPEVSSVFIFPPKPKDVLTITLTPKVTCVVVDISKDDPEVQFSWFVDDVEVHTAQTQPREEQFNSTFRSVSELPIMHQDWLNGKEFKCRVNSAAFPAPIEKTISKTKGRPKAPQVYTIPPPKEQMAKDKVSLTCMITDFFPEDITVEWQWNGQPAENYKNTQPIMDTDGSYFVYSKLNVQKSNWEAGNTFTCSVLHEGLHNHHTEKSLSHSPGK
light: NIVLTQSPVSLAVSLGQRATISCRASESVDINGNTFMHWYQQKPGQSPKLVIYAASNIESGVPARFSGSGSSTDFTFTIDPVEADDVATYYCQQNIEDPWTFGGGTKVEIKRADAAPTVSIFPPSSEQLTSGGASVVCFLNNFYPKDINVKWKIDGSERQNGVLNSWTDQDSKDSTYSMSSTLTLTKDEYERHNSYTCEATHKTSTSPIVKSFNRNEC
notes: murine monoclonal IgG, kappa, from hybridoma; also called murine MAb2
Question: For B3, which EC50 [5] is on record?
Answer: 6.6 nM

Question: And the EC50 [6]?
Answer: 6.3 nM
